Experimental data from the supplement of paper PMC12042874.
± gives the uncertainty stated by the source.

Experiment: amyloid nucleation score (Sup35N fusion, yeast selection) (log enrichment); library NNK2; higher = more nucleation; inactive = no reads after selection
Summary of the method: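 The nucleation score is a DiMSum log enrichment of output over input reads, centred on the mode score of non-aggregating sequences. Sequences under 100 input reads were excluded, and reads came from Illumina sequencing of plasmid inserts. Psi-negative yeast expressing Sup35N fused to peptides of 20 random codons were induced with 100 μM copper sulfate for 24 hours and grown 7 days at 30°C on medium lacking adenine and uracil. Random libraries had three technical output replicates.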

Work on ASDVKGSANDVVGFWVLPDQ yielded an amyloid nucleation score of 5.907 ± 0.049.

YTFCKHDVYAISLRFVLAPY showed an amyloid nucleation score of 7.304 ± 0.035.

For ECNSSALHNWKY, the amyloid nucleation score was 0.088 ± 0.54.

Substance GFGVPDWMFDSFSAAQLSQI has an amyloid nucleation score of -0.343 ± 0.35.

For SDERSGFRTSVRG, the amyloid nucleation score was 0.479 ± 0.29.

SSDLAGQRLSLCWVLCTG gave an amyloid nucleation score of 0.474 ± 0.53.

YCKFYWNHNVYCLVALWRLW gave an amyloid nucleation score of -0.149 ± 0.79.

In the case of KTDRLTKGTATFKRMTEI, the amyloid nucleation score is reported as “inactive”.

For CRCLPKKGFHVLTVSRFRAS, the amyloid nucleation score was “inactive”.

Substance FNVAGRRRISGTNLY has an amyloid nucleation score of -0.159 ± 1.1.

Work on VWWVAFYSGTKI yielded an amyloid nucleation score of 0.019 ± 1.1.

Substance HGQARWGR has an amyloid nucleation score of 1.47 ± 0.28.

ICWHV showed an amyloid nucleation score of -0.277 ± 1.1.

For ICQWRSWLKSTVIFCTRYDF, the amyloid nucleation score was 3.37 ± 0.13.

For IATYIR, the amyloid nucleation score was -0.179 ± 0.63.

Substance AKFTL has an amyloid nucleation score of -0.253 ± 0.3.

For FRMVSKPMLYNIMRFTSMLV, the amyloid nucleation score was 0.057 ± 1.1.

VSLLNGYGAHSDMSAVGRRR gave an amyloid nucleation score of 0.649 ± 0.47.

With QVAIPHHTRIETASARRVHT the amyloid nucleation score was 1.09 ± 0.51.

Work on LRQGPTHFLYLGCYFVDAMR yielded an amyloid nucleation score of 7.119 ± 0.066.

Substance LLFQNLIRRLCSMCQFGGCV has an amyloid nucleation score of -0.531 ± 0.46.

Work on LFVYWV yielded an amyloid nucleation score of 0.126 ± 0.38.

In the case of DTSAIFSYALLL, the amyloid nucleation score is reported as 4.56 ± 0.058.

With AINCKTGRKLNWIVFGRFTV the amyloid nucleation score was -0.315 ± 0.25.

In the case of PCCFYLRICLCFSNTVEPIG, the amyloid nucleation score is reported as 4.07 ± 0.046.

VGRVNIVSDLMVPNSHYICS gave an amyloid nucleation score of -0.056 ± 0.76.

With YLTFLNASTSRYKLSLVPRR the amyloid nucleation score was 4.11 ± 0.082.

For FDQSFFNLPQGTFLVLYSSA, the amyloid nucleation score was “inactive”.

In the case of TLPRSII, the amyloid nucleation score is reported as -0.113 ± 1.1.

Substance CWLAMN has an amyloid nucleation score of -0.166 ± 0.8.

Substance KMQMLWTGVCRVLFVAPQPN has an amyloid nucleation score of 0.319 ± 0.36.

For VQFRAHSCLLA, the amyloid nucleation score was 0.841 ± 0.74.

RADSIFDTI showed an amyloid nucleation score of -0.721 ± 0.61.

TVCWEWSSLWDTPSLKSAD showed an amyloid nucleation score of 0.536 ± 0.37.

For AMYINWSLFVKLSRRMRYQR, the amyloid nucleation score was “inactive”.

With GLTVHTVWLA the amyloid nucleation score was 0.189 ± 0.4.

Work on CTRSFVTQSDEDSPIGSDR yielded an amyloid nucleation score of -1.39 ± 0.38.

EESSTKGMTG gave an amyloid nucleation score of -0.014 ± 0.26.

Work on KIIISYGQCK yielded an amyloid nucleation score of 2.71 ± 0.2.

Work on PGSVWFSLTSMHE yielded an amyloid nucleation score of 0.623 ± 0.66.

Work on ASVKSILVYGGCTKWFFPHF yielded an amyloid nucleation score of 4.11 ± 0.062.

Work on YKGQCSILLGRVRWDFSSSS yielded an amyloid nucleation score of -1.02 ± 0.78.

STWHLFWSP gave an amyloid nucleation score of 0.654 ± 0.26.

Work on RVGRSSKLWGFREYTSRKFG yielded an amyloid nucleation score of 0.28 ± 0.77.

SLGNVELRQ showed an amyloid nucleation score of -0.679 ± 0.29.

Substance FNSLILQIIVVRV has an amyloid nucleation score of 7.843 ± 0.04.

Substance DLVVYLSPVGGTGRFYEVGA has an amyloid nucleation score of 3.92 ± 0.062.

VTFCMQVRAG gave an amyloid nucleation score of 0.524 ± 0.33.

TRSHLFGYSVMGSSLIDSLY showed an amyloid nucleation score of -1.24 ± 0.79.

LDYDKNKFWAQHLYSKQSSL showed an amyloid nucleation score of 0.805 ± 0.23.

CVVDLDPCNGDAGLSSYTIS showed an amyloid nucleation score of 0.594 ± 0.13.

With PFGMCSFTVVIYYGCFEDAH the amyloid nucleation score was 0.519 ± 0.3.

Substance LKAWYYSVYSRTVTYSPMLH has an amyloid nucleation score of -1.03 ± 0.61.

LTFGCG gave an amyloid nucleation score of -0.903 ± 0.36.

For RLLMGPVNSFGR, the amyloid nucleation score was 3.57 ± 0.07.

Work on IRFANVPSRNKFH yielded an amyloid nucleation score of 0.486 ± 0.36.

For FRLNMAYDEPVCLMGSVHNV, the amyloid nucleation score was -1.38 ± 0.54.

With RAMYECF the amyloid nucleation score was 0.604 ± 0.41.

KGGAARSVWISMCFFKAFYR gave an amyloid nucleation score of -0.358 ± 1.

In the case of FLKIYPIPNCYERCCVHLPP, the amyloid nucleation score is reported as 0.06 ± 0.61.

LTPLICADNLD gave an amyloid nucleation score of -0.526 ± 0.35.

LSDAMILNLRAIFSSISLLQ showed an amyloid nucleation score of -0.86 ± 0.78.

For VRWTTFRECWAGYGGYVIGR, the amyloid nucleation score was 1.19 ± 0.17.

In the case of PFVTFATVFLLKPMVFAKQC, the amyloid nucleation score is reported as 1.23 ± 0.38.

Work on PGVPP yielded an amyloid nucleation score of -1.06 ± 1.1.

Substance SLMWDGANLYCMMVYSSVRN has an amyloid nucleation score of 0.182 ± 1.1.

With VERIKLFASAHYS the amyloid nucleation score was -0.203 ± 0.35.

In the case of TWRHSPCLVRTEFERKLTRL, the amyloid nucleation score is reported as 0.039 ± 0.49.

Substance MLYSSR has an amyloid nucleation score of -1.44 ± 0.44.

Work on WVAKYLFSLEDHVSVRIVDI yielded an amyloid nucleation score of 0.227 ± 0.56.

In the case of IDSDSFHDRSTSRHLFNGLA, the amyloid nucleation score is reported as “inactive”.

With DIIAPEKNFIIYY the amyloid nucleation score was “inactive”.

With IMNKVAWWIFMRMLSRGFVT the amyloid nucleation score was -1.1 ± 0.54.

In the case of YSSTTITFYNWDRVTSRRLA, the amyloid nucleation score is reported as -0.832 ± 0.44.

In the case of KFIFTSLAN, the amyloid nucleation score is reported as -0.425 ± 0.61.

For MGLSAVQVFSRRCSFSGKWC, the amyloid nucleation score was “inactive”.

In the case of SMLRY, the amyloid nucleation score is reported as 0.171 ± 0.6.

Substance FSGFVCWQADIFDDANIRLV has an amyloid nucleation score of -0.707 ± 0.78.

For HDGCGPCSHWTGSQFTFRSS, the amyloid nucleation score was 2.2 ± 0.11.

FMNLTLGIYKDFITFMMYVS gave an amyloid nucleation score of 1.83 ± 0.12.

In the case of RLRMSMIISLINLRLCGLML, the amyloid nucleation score is reported as 1.03 ± 0.53.

Work on HDINRMG yielded an amyloid nucleation score of 0.391 ± 0.54.

Substance IWDEQCRTLCGARCNDVSAW has an amyloid nucleation score of 0.799 ± 0.3.

Substance YKLGVKPMKAG has an amyloid nucleation score of -0.224 ± 0.79.

VTSICNPDVIMEEKLGDNRG showed an amyloid nucleation score of -0.416 ± 0.28.

For TCIDEGEVVLDFFNVIKVLC, the amyloid nucleation score was “inactive”.

For LLRILANQLKYYETTLCVGG, the amyloid nucleation score was -0.27 ± 1.1.

VRDFCRWASDVRCSNGWRVA showed an amyloid nucleation score of 0.384 ± 0.65.

For MTGNVYKMIILIYNFFRRS, the amyloid nucleation score was 2.7 ± 0.069.

Substance TSISLLFWCVYSLASVGFSA has an amyloid nucleation score of -0.586 ± 1.1.

For LKYDSKPSRVWMEICLYDAR, the amyloid nucleation score was 7.192 ± 0.054.

With MIVNYFWIRCAPLFWQAIPS the amyloid nucleation score was 3.63 ± 0.15.

Work on VREGSNRVSRFHNGWHQSGL yielded an amyloid nucleation score of -0.555 ± 0.79.

Substance KLNCMRGLPGLCPRWFIIAC has an amyloid nucleation score of 0.089 ± 1.1.

In the case of MAVLEMRDRWCDLLLTTSRV, the amyloid nucleation score is reported as 0.155 ± 0.21.

In the case of YITYSREAETCIFVKGDFS, the amyloid nucleation score is reported as -0.153 ± 1.1.

In the case of HNSNYHIYGWVMVRRRIGYI, the amyloid nucleation score is reported as “inactive”.

RSDSVYSIGCSNENRQSGRA gave an amyloid nucleation score of 1.21 ± 0.2.

Work on EVMCMSRYDPR yielded an amyloid nucleation score of -0.557 ± 1.1.

Work on MTRVTYMYVFIYACESRYTH yielded an amyloid nucleation score of -0.116 ± 0.22.

With YKNVAFCFVRMFFEGHSINC the amyloid nucleation score was -1.45 ± 0.76.

For NRRGANCVQS, the amyloid nucleation score was -0.372 ± 0.39.

Substance PDRVLLYKLTVRRFTGCDWG has an amyloid nucleation score of 2.32 ± 0.17.

CFVYLDLLYMEMMYHRQVAY showed an amyloid nucleation score of -0.552 ± 0.34.

With LERLVSALLHTIRFRRMVVH the amyloid nucleation score was “inactive”.

Work on EVEIEE yielded an amyloid nucleation score of -0.576 ± 0.76.

For NWWYSRSRPHMGSSISFSEV, the amyloid nucleation score was -0.37 ± 0.41.

Substance PVNPQEFLSALSSRYEVKSW has an amyloid nucleation score of -0.095 ± 1.1.

Substance NSPMSKSLNRT has an amyloid nucleation score of 0.347 ± 0.22.

For ENNVKLIRNTTNTVVYHLIP, the amyloid nucleation score was 7.64 ± 0.06.

With SHNVGYCSVSCSCTWWHSCV the amyloid nucleation score was “inactive”.

With CLRGDNKISLDRSGGMTFGQ the amyloid nucleation score was 1.79 ± 0.18.

In the case of GAVGARLAINGSSRWMCSWY, the amyloid nucleation score is reported as 2.39 ± 0.1.

VIGASRRVWHRLKHKA showed an amyloid nucleation score of 0.994 ± 0.34.

For YKTFFLVASAKVNEAPGQRG, the amyloid nucleation score was “inactive”.

For FHVKIGW, the amyloid nucleation score was -0.086 ± 0.33.

In the case of LAYRKVLCMYSVSHSYTRAC, the amyloid nucleation score is reported as “inactive”.

With YCRHIAVECSVGLHWHGGTV the amyloid nucleation score was 3.26 ± 0.15.

In the case of NRQLWYPSINKYFFKSADPL, the amyloid nucleation score is reported as “inactive”.

YLRTYLW showed an amyloid nucleation score of -0.208 ± 0.49.

ISECR gave an amyloid nucleation score of -0.432 ± 1.1.

With YWLVRMVHGRAWPIFEENCQ the amyloid nucleation score was -0.01 ± 1.

In the case of NCFYALYPSQDWRMTKLELS, the amyloid nucleation score is reported as -0.106 ± 0.23.

For PHVFYCSILV, the amyloid nucleation score was “inactive”.

With SWDHDYCGRWWCSNARGKIN the amyloid nucleation score was 4.3 ± 0.07.

For NSVRNTYWKAPGNLTEGVSG, the amyloid nucleation score was -0.054 ± 0.4.

Substance NTLVMRWCRGCQWKEQLASN has an amyloid nucleation score of 1.1 ± 0.41.
